Measured values published in patent publication US20260209386A1 (MYTHIC THERAPEUTICS, published 2026).
Substitutions are numbered along the chain they refer to.

T1: Human PTK7 Protein, His Tag (Acro Biosystems) (human, UniProt Q13308 31-704)
T1 construct: Bought recombinant protein; also called CCK4; tyrosine-protein kinase-like 7; not shown: His tag
T1 sequence: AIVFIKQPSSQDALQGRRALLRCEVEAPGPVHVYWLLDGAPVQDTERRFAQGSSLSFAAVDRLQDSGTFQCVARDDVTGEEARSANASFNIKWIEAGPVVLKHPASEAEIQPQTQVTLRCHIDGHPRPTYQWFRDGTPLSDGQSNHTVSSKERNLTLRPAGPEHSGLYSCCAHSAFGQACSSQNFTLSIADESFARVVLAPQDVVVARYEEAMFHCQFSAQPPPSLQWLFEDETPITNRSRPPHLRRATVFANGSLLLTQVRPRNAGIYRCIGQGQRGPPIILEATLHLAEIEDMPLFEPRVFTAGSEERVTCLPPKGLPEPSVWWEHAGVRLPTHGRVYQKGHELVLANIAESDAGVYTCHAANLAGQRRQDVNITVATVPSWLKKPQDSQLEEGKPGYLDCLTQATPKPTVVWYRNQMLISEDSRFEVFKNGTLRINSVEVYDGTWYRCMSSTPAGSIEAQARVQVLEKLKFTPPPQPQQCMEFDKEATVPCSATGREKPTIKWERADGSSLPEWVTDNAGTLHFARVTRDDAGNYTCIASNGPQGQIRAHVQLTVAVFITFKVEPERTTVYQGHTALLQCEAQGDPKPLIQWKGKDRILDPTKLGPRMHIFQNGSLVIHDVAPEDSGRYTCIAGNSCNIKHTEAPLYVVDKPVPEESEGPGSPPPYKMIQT

T2: Human PTK7 Protein, His Tag, Acro Biosystems (human, UniProt Q13308 31-704)
T2 construct: Bought protein; also called CCK4; not shown: His tag
T2 sequence: T1 sequence

B1: MYT11341 (antibody, V domains shown)
VH: EVQLVESGGGLVQPGGSLRLSCTASGIHLSNYAVIWVRQAPGKGLEWVGIIYTYDTTYYANWAKGRFTISRDTSKNTVYLQMNSLRAEDTAVYFCARSFSDISDLIKLWGQGTLVTVSS
VL: EIVMTQSPSTLSASVGDRVIITCQASQSLYNNKDLAWYQQKPGKAPKLLIYEASKLASGVPSRFSGSGSGAEFTLTISSLQPDDFATYYCLGEFSCGSGDCLAFGQGTKLTVL
notes: MYT9797 HC variant; captured via anti-human Fc
B2: MYT11339 (antibody, V domains shown)
VH: B1 VH with G26H, H28D
VL: B1 VL
notes: as for B1
B3: MYT11183 (antibody, V domains shown)
VH: EVQLVESGGGLVQPGGSLRLSCTASGIDHSSYVMGWVRQAPGKGLEWVGYIYGGGGTYYATWARGRFTISRDTSKNTVYLQMNSLRAEDTAVYFCARAAADFYFNLWGQGTLVTVSS
VL: EIVMTQSPSTLSASVGDRVIITCQASQSISSYLAWYQQKPGKAPKLLIYDISDLASGVPSRFSGSGSGAEFTLTISSLQPDDFATYYCQSYYWISNSGAAFGQGTKLTVL
notes: HC variant of MYT9460, sub at HCV pos 29 (H1 04)
B4: MYT11231 (antibody, V domains shown)
VH: B3 VH with H29L
VL: B3 VL with D50H
notes: LC variant of MYT9460, sub at LCV pos 50 (L2 01)
B5: MYT11185 (antibody, V domains shown)
VH: B3 VH with H29L, S31H
VL: B3 VL
notes: HC variant of MYT9460, sub at HCV pos 31 (H1 06)
B6: MYT11223 (antibody, V domains shown)
VH: B3 VH with H29L
VL: B3 VL with Q27H
notes: LC variant of MYT9460, sub at LCV pos 27 (L1 04)
B7: MYT11217 (antibody, V domains shown)
VH: B3 VH with H29L, F94Y
VL: B3 VL
B8: MYT11203 (antibody, V domains shown)
VH: B3 VH with H29L, A63H
VL: B3 VL
notes: HC variant of MYT9460, sub at HCV pos 63 (H2 14)
B9: MYT11219 (antibody, V domains shown)
VH: B3 VH with H29L, D101A
VL: B3 VL
notes: HC variant of MYT9460, printed as H3 05 with HCV pos 101, new residue not marked
B10: MYT11198 (antibody, V domains shown)
VH: B3 VH with H29L, Y58H
VL: B3 VL
notes: HC variant of MYT9460, sub at HCV pos 58 (H2 09)
B11: MYT11239 (antibody, V domains shown)
VH: B3 VH with H29L
VL: B3 VL with S90H
notes: LC variant of MYT9460, sub at LCV pos 90 (L3 02)
B12: MYT11208 (antibody, V domains shown)
VH: B3 VH with H29L, A98H
VL: B3 VL
notes: HC variant of MYT9460, sub at HCV pos 98 (H3 03)
B13: MYT11220 (antibody, V domains shown)
VH: B3 VH with H29L
VL: B3 VL with Q24H
notes: LC variant of MYT9460, sub at LCV pos 24 (L1 01)
B14: MYT11200 (antibody, V domains shown)
VH: B3 VH with H29L, A60H
VL: B3 VL
notes: HC variant of MYT9460, sub at HCV pos 60 (H2 11)
B15: MYT11251 (antibody, V domains shown)
VH: B3 VH with H29L
VL: B3 VL with D50A
notes: LC variant of MYT9460, Ala sub at LCV pos 50 (L2 01)
B16: MYT11242 (antibody, V domains shown)
VH: B3 VH with H29L
VL: B3 VL with W93H
notes: LC variant of MYT9460, sub at LCV pos 93 (L3 05)
B17: MYT11235 (antibody, V domains shown)
VH: B3 VH with H29L
VL: B3 VL with L54H
notes: LC variant of MYT9460, sub at LCV pos 54 (L2 05)
B18: MYT11226 (antibody, V domains shown)
VH: B3 VH with H29L
VL: B3 VL with S30H
notes: LC variant of MYT9460, sub at LCV pos 30 (L1 07)
B19: MYT11202 (antibody, V domains shown)
VH: B3 VH with H29L, W62H
VL: B3 VL
notes: HC variant of MYT9460, sub at HCV pos 62 (H2 13)
B20: MYT11188 (antibody, V domains shown)
VH: B3 VH with H29L, M34H
VL: B3 VL
notes: HC variant of MYT9460, sub at HCV pos 34 (H1 09)
B21: MYT11237 (antibody, V domains shown)
VH: B3 VH with H29L
VL: B3 VL with S56H
notes: LC variant of MYT9460, sub at LCV pos 56 (L2 07)
B22: MYT11252 (antibody, V domains shown)
VH: B3 VH with H29L
VL: B3 VL with D53A
notes: LC variant of MYT9460, Ala sub at LCV pos 53 (L2 04)
B23: MYT11215 (antibody, V domains shown)
VH: B3 VH with H29L, N105H
VL: B3 VL
B24: MYT11201 (antibody, V domains shown)
VH: B3 VH with H29L, T61H
VL: B3 VL
notes: HC variant of MYT9460, sub at HCV pos 61 (H2 12)
B25: MYT11214 (antibody, V domains shown)
VH: B3 VH with H29L, F104H
VL: B3 VL
notes: HC variant of MYT9460, sub at HCV pos 104 (H3 09)
B26: MYT11187 (antibody, V domains shown)
VH: B3 VH with H29L, V33H
VL: B3 VL
notes: HC variant of MYT9460, sub at HCV pos 33 (H1 08)
B27: MYT11205 (antibody, V domains shown)
VH: B3 VH with H29L, G65H
VL: B3 VL
notes: HC variant of MYT9460, sub at HCV pos 65 (H2 16)
B28: MYT11186 (antibody, V domains shown)
VH: B3 VH with H29L, Y32H
VL: B3 VL
notes: HC variant of MYT9460, sub at HCV pos 32 (H1 07)
B29: MYT11234 (antibody, V domains shown)
VH: B3 VH with H29L
VL: B3 VL with D53H
notes: LC variant of MYT9460, sub at LCV pos 53 (L2 04)
B30: MYT11218 (antibody, V domains shown)
VH: B3 VH with D28A, H29L
VL: B3 VL
notes: HC variant of MYT9460, sub at HCV pos 28 (H1 03), second variant at this position, new residue not marked
B31: MYT11216 (antibody, V domains shown)
VH: B3 VH with H29L, L106H
VL: B3 VL
B32: MYT11206 (antibody, V domains shown)
VH: B3 VH with H29L, A96H
VL: B3 VL
notes: HC variant of MYT9460, sub at HCV pos 96 (H3 01)
B33: MYT11228 (antibody, V domains shown)
VH: B3 VH with H29L
VL: B3 VL with Y32H
notes: LC variant of MYT9460, sub at LCV pos 32 (L1 09)
B34: MYT11209 (antibody, V domains shown)
VH: B3 VH with H29L, A99H
VL: B3 VL
notes: HC variant of MYT9460, sub at HCV pos 99 (H3 04)
B35: MYT11207 (antibody, V domains shown)
VH: B3 VH with H29L, R97H
VL: B3 VL
notes: HC variant of MYT9460, sub at HCV pos 97 (H3 02)
B36: MYT11199 (antibody, V domains shown)
VH: B3 VH with H29L, Y59H
VL: B3 VL
notes: HC variant of MYT9460, sub at HCV pos 59 (H2 10)
B37: MYT11241 (antibody, V domains shown)
VH: B3 VH with H29L
VL: B3 VL with Y92H
notes: LC variant of MYT9460, sub at LCV pos 92 (L3 04)
B38: MYT11227 (antibody, V domains shown)
VH: B3 VH with H29L
VL: B3 VL with S31H
notes: LC variant of MYT9460, sub at LCV pos 31 (L1 08)
B39: MYT11233 (antibody, V domains shown)
VH: B3 VH with H29L
VL: B3 VL with S52H
notes: LC variant of MYT9460, sub at LCV pos 52 (L2 03)

These binders were tested against T1, Human PTK7 Protein, His Tag (Acro …) (assay: BLI, antibody on anti-human Fc sensor, 50 nM PTK7 at pH 7.4, dissociation at pH 7.4 or 5.4; 2 = substantially similar binding relative to parent).

Binder	binding result
B1	binds
B2	binds

Each binder was assayed against T2, Human PTK7 Protein, His Tag, Acro … (assay: BLI (Octet), antibody on anti-human Fc sensor, 50 nM PTK7, dissociation at pH 7.4 or 5.4; 2 = substantially similar binding relative to parent).

Binder	binding result
B3	binds
B4	binds
B5	binds
B6	binds
B7	binds
B8	binds
B9	binds
B10	binds
B11	binds
B12	binds
B13	binds
B14	binds
B15	binds
B16	binds
B17	binds
B18	binds
B19	binds
B20	binds
B21	binds

Binder	binding result
B22	binds
B23	binds
B24	binds
B25	binds
B26	binds
B27	binds
B28	binds
B29	binds
B30	binds
B31	binds
B32	binds
B33	binds
B34	binds
B35	binds
B36	binds
B37	binds
B38	binds
B39	binds
